Experimental data as given in PMC2650276 (Neuron, 2009).
Read-outs that look alike come from different tables or passages of the source. Where no end group is shown, it is not given here.

How the values were obtained:
Assay in all cases: pull-down
[1] = molecular target: T1, His-tagged full-length CaMKIIα (M1-H478), wild type (rat, UniProt P11275 1-478)
[2] = molecular target: His-tagged WT pCaMKIIα (autophosphorylated at T286) (rat, UniProt P11275 1-478, phosphothreonine at T286 (autophosphorylation))
[3] = molecular target: GST-tagged full-length CaMKIIα (M1-H478) (rat, UniProt P11275 1-478)
[4] = molecular target: T1, His-tagged full-length CaMKIIα …; remark: listed apart in the source
[5] = molecular target: T1, His-tagged full-length CaMKIIα …; remark: listed apart in the source

T1 sequence (P11275 whole entry): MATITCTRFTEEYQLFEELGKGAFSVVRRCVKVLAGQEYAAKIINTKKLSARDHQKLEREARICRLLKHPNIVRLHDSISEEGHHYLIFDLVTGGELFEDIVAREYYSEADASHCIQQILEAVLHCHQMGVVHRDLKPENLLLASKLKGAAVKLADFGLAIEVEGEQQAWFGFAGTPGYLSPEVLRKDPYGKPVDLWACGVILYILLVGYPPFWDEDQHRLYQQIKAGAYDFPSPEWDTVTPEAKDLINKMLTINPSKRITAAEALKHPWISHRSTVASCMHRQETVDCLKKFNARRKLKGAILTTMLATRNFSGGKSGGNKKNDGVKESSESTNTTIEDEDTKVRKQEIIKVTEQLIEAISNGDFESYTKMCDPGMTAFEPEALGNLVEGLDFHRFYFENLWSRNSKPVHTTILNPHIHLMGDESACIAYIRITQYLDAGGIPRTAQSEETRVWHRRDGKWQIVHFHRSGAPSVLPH
Chain of His-tagged WT pCaMKIIα (autophosphorylated at T286) (P11275 whole entry): as above
Chain of GST-tagged full-length CaMKIIα (M1-H478) (P11275 whole entry): as above

B1: GST-D3RIL3 (R210-Q375) (domain or fragment, rat, UniProt P19020 210-375, looked up)
chain: RIYIVLRQRQRKRILTRQNSQCISIRPGFPQQSSCLRLHPIRQFSIRARFLSDATGQMEHIEDKQYPQKCQDPLLSHLQPPSPGQTHGGLKRYYSICQDTALRHPSLEGGAGMSPVERTRNSLSPTMAPKLSLEVRKLSNGRLSTSLRLGPLQPRGVPLREKKATQ
**Q.** What does the source list for B1?
**A.** binding result [1]: binds; binding result [2]: binds

B2: D3RIL3 (R210-Q375), released from GST by thrombin (domain or fragment, rat, UniProt P19020 210-375, looked up)
chain: B1 chain
**Q.** Does B2 bind [3]?
**A.** Result: binds

**Q.** Does YGRKKRRQRRRRILTRQNSQCISIRP (also: biotin, position not given here) [biotinylated Tat-D3Rr] bind [4]?
**A.** Result: binds

**Q.** Does RIYIVLRQRQRKRILTRQNSQCISIRPGFP (domain or fragment, rat, UniProt P19020 210-239, looked up) [GST-D3RIL3(R210-P239)] bind [2]?
**A.** Result: binds

**Q.** Does RIYIVLRQRQRKRILTRQNSQCISIRPGFP (domain or fragment, rat, UniProt P19020 210-239, looked up) [GST-D3RIL3(R210-P239)] bind [5]?
**A.** Result: binds
